Source: patent US6001988, “High affinity nucleic acid ligands to lectins” (NeXstar Pharmaceuticals, Inc.)

Legend:
[1] = target: T1, E-selectin (ES-Rg) (Homo sapiens, UniProt P16581 P16581:22-556); assay: filter; 4 C, HSMC; conditions: tags: human IgG1 Fc fusion (provided by A. Varki), chain copies: 2, label: 32P
T1 chain: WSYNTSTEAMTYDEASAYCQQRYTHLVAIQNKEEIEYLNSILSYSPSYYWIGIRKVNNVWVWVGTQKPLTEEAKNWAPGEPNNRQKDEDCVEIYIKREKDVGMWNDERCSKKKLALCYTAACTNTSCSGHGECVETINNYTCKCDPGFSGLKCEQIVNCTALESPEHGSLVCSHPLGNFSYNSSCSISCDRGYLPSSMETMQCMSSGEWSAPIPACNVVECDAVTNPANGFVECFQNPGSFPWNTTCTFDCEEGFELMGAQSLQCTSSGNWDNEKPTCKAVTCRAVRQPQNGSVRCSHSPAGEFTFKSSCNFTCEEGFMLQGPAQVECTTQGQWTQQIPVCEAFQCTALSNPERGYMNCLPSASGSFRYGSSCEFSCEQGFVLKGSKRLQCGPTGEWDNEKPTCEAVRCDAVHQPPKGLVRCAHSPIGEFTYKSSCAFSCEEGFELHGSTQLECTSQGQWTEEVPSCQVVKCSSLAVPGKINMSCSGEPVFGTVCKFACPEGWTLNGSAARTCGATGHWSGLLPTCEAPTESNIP
Procedure: (§1) As described in SELEX Patent Applications, the nitrocellulose filter partitioning method was used to determine the affinity of RNA ligands for LS-Rg and for other proteins. Filter discs (nitrocellulose/cellulose acetate mixed matrix, 0.45 um pore size, Millipore) were placed on a vacuum manifold and washed with 2 ml of HSMC buffer under vacuum. Reaction mixtures, containing ^32P labeled RNA pools and unlabeled LS-Rg, were incubated in HSMC for 10–20 min at 4° C., room temperature or 37° C., filtered, and then immediately washed with 4 ml HSMC at the same temperature. The filters were air-dried and counted in a Beckman LS6500 liquid scintillation counter without fluor.
(§2) The affinity of L-selectin ligands to ES-Rg, PS-Rg and CD22β-Rg were determined by nitrocellulose partitioning. […] In general, a ligand's affinity for ES-Rg is 10^3-fold lower and that for PS-Rg is about 10^4-fold less than for LS-Rg. […] The specificity of oligonucleotide ligand binding contrasts sharply with the binding of cognate carbohydrates by the selectins and confirms the assertion that SELEX ligands will have greater specificity than carbohydrate ligands.
(§3) *Dissociation constants were determined at 4° C. in HSMC buffer.

[2] = target: T2, L-selectin (LS-Rg) (Homo sapiens, UniProt P14151 P14151:39-332); assay: filter; 4 C, HSMC; 15.9 nM at room temp; conditions: tags: human IgG2 Fc fusion (provided by A. Varki); label: 32P; hairpin
T2 chain: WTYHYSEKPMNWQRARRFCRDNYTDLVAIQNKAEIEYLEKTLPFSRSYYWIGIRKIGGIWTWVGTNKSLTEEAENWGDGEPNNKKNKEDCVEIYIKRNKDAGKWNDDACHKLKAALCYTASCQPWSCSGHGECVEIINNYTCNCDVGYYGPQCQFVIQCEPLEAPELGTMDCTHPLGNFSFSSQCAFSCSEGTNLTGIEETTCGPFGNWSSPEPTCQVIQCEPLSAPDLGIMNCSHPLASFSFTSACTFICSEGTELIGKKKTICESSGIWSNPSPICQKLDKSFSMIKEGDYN
Procedure: as §1
(§4) The dissociation constants for representative ligands from rounds 13 and 14, including all orphans, were determined by nitrocellulose filter binding experiments and are listed in Table IX. These calculations assume two RNA ligand binding sites per chimera. The affinity of random RNA cannot be reliably determined but is estimated to be approximately 10 µM.

[3] = target: T2, L-selectin (LS-Rg); assay: filter; 4 C, HSMC (Ca/Mg); biphasic, fraction 0.68, low affinity Kd 60 nM; 1.0 nM at room temp; conditions: tags: human IgG2 Fc fusion (provided by A. Varki); label: 32P; pseudoknot
Procedure: as §1, §4

[4] = target: T3, P-selectin (PS-Rg) (Homo sapiens, UniProt P16109 P16109:42-321); assay: filter; room temp, Ca/Mg buffer; conditions: tags: lectin, EGF and first two CRD domains fused to human IgG1 Fc (provided by A. Varki); chain copies: 2 (dimeric Fc chimera, inferred)
T3 chain: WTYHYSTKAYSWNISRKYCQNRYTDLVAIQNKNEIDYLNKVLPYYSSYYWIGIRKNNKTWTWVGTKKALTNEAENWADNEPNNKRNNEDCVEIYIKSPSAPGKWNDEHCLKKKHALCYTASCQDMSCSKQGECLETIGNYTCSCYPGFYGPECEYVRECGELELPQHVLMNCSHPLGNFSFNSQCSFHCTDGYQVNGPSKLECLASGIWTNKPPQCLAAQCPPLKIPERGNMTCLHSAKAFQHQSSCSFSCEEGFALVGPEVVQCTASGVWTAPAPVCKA
Procedure: (§5) RNA was reverse transcribed into cDNA by AMV reverse transcriptase at 48° C. for 60 min in 50 mM Tris-Cl pH (8.3), 60 mM NaCl, 6 mM Mg(OAc)_2, 10 mM DTT, 100 pmol DNA primer, 0.4 mM each of dNTPs, and 0.4 unit/µl AMV RT. […] C) Nitrocellulose Filter Partitioning As described in SELEX Patent Applications, the nitrocellulose filter partitioning method was used to determine the affinity of RNA ligands for WGA and for other proteins. Filter discs (nitrocellulose/cellulose acetate mixed matrix, 0.45 µm pore size, Millipore; or pure nitrocellulose, 0.45 µm pore size, Bio-Rad) were placed on a vacuum manifold and washed with 4 ml of HBSS buffer under vacuum. Reaction mixtures, containing ^32P labeled RNA pools and unlabeled WGA, were incubated in HBSS for 10 min at room temperature, filtered, and then immediately washed with 4 ml HBSS. The filters were air-dried and counted in a Beckman LS6500 liquid scintillation counter without fluor. WGA is a homodimer, molecular weight 43.2 kD, with 4 GlcNAc binding sites per dimer. For affinity calculations, we assume one RNA ligand binding site per monomer (two per dimer). The monomer concentration is defined as 2 times the dimer concentration. The equilibrium dissociation constant, K_d, for an RNA pool or specific ligand that binds monophasically is given by the equation $$K_d=[P_f][R_f]/[RP]$$
(§6) The affinity of representative cloned ligands for LS-Rg, ES-Rg, PS-Rg, CD22β-Rg and WGA was determined by nitrocellulose partitioning and the results shown in Table XIV. The ligands are highly specific for L-selectin.
(§7) *Kds were determined at room temperature.

[5] = target: T1, E-selectin (ES-Rg); assay: filter; room temp, Ca/Mg buffer; conditions: tags: extracellular domain fused to human IgG1 Fc (provided by A. Varki); chain copies: 2 (dimeric Fc chimera, inferred)
Procedure: as §5, §6, §7

[6] = target: T2, L-selectin (LS-Rg); assay: filter; room temp; 2.1 nM at 37 C; conditions: tags: human IgG2 Fc fusion (provided by A. Varki); label: 32P
[7] = target: T4, Ulex europaeus lectin UEA-II (Ulex europaeus, UniProt P22973 P22973:1-249); assay: filter; HBSS, room temp; conditions: tags: E Y Laboratories; label: 32P; hairpin
T4 sequence: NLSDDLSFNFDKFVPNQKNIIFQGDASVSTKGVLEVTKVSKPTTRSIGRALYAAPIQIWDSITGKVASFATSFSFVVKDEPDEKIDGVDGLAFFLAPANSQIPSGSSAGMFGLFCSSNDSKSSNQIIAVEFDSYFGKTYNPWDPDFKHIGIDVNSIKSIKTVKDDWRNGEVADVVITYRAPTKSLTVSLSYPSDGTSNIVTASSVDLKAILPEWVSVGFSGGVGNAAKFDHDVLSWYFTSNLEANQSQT
Procedure: as §5, with “The specifically eluted fraction was processed for use in the following round. Fractions eluted from immobilized WGA were heated at 90° C. for 5 minutes in 1% SDS, 2% β-mercaptoethanol and extracted with phenol/chloroform. RNA was” for “RNA was”, “per dimer). […]” for “per dimer). The monomer concentration is defined as 2 times the dimer concentration. The equilibrium dissociation constant, K_d, for an RNA pool or specific ligand that binds monophasically is given by the equation $$K_d=[P_f][R_f]/[RP]$$”

[8] = target: T5, wheat germ agglutinin (WGA) (Triticum vulgare, UniProt P10968 P10968:27-197); assay: filter; HBSS, room temp; 11.4 nM in Table IV; conditions: tags: free lectin, E Y Laboratories; label: 32P; hairpin
T5 sequence: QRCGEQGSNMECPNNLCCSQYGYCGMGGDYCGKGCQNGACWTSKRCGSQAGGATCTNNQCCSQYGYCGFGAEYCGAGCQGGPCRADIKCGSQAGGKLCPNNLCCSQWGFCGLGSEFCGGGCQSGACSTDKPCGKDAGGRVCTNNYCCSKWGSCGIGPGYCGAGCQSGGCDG
Procedure: as §5, with “The specifically eluted fraction was processed for use in the following round. Fractions eluted from immobilized WGA were heated at 90° C. for 5 minutes in 1% SDS, 2% β-mercaptoethanol and extracted with phenol/chloroform. RNA was” for “RNA was”, “per dimer). […]” for “per dimer). The monomer concentration is defined as 2 times the dimer concentration. The equilibrium dissociation constant, K_d, for an RNA pool or specific ligand that binds monophasically is given by the equation $$K_d=[P_f][R_f]/[RP]$$”

[9] = target: T2, L-selectin (LS-Rg); assay: filter; 4 C, HSMC; 5.5 nM at room temp; conditions: tags: human IgG2 Fc fusion (provided by A. Varki); label: 32P
Procedure: as §1, §4

[10] = target: T5, wheat germ agglutinin (WGA); assay: filter; HBSS, room temp; printed as 11.3, SEQ 54; conditions: tags: free lectin, E Y Laboratories; label: 32P
Procedure: The specifically eluted fraction was processed for use in the following round. Fractions eluted from immobilized WGA were heated at 90° C. for 5 minutes in 1% SDS, 2% β-mercaptoethanol and extracted with phenol/chloroform. RNA was reverse transcribed into cDNA by AMV reverse transcriptase at 48° C. for 60 min in 50 mM Tris-Cl pH (8.3), 60 mM NaCl, 6 mM Mg(OAc)_2, 10 mM DTT, 100 pmol DNA primer, 0.4 mM each of dNTPs, and 0.4 unit/µl AMV RT. […] C) Nitrocellulose Filter Partitioning As described in SELEX Patent Applications, the nitrocellulose filter partitioning method was used to determine the affinity of RNA ligands for WGA and for other proteins. Filter discs (nitrocellulose/cellulose acetate mixed matrix, 0.45 µm pore size, Millipore; or pure nitrocellulose, 0.45 µm pore size, Bio-Rad) were placed on a vacuum manifold and washed with 4 ml of HBSS buffer under vacuum. Reaction mixtures, containing ^32P labeled RNA pools and unlabeled WGA, were incubated in HBSS for 10 min at room temperature, filtered, and then immediately washed with 4 ml HBSS. The filters were air-dried and counted in a Beckman LS6500 liquid scintillation counter without fluor. […]
The dissociation constants for representative members of families 1–9 and orphan ligands were determined by nitrocellulose filter binding experiments and are listed in Table III. […]

[11] = target: T3, P-selectin (PS-Rg); assay: filter; 4 C, HSMC; conditions: tags: human IgG1 Fc fusion (provided by A. Varki); chain copies: 2; label: 32P
Procedure: as §1, §2, §3

[12] = target: T2, L-selectin (LS-Rg); assay: filter; 4 C, HSMC; biphasic, fraction 0.65, low affinity Kd 14.5 nM; 142 nM at room temp; conditions: tags: human IgG2 Fc fusion (provided by A. Varki); label: 32P
Procedure: as §1, §4

[13] = target: T2, L-selectin (LS-Rg); assay: filter; 4 C, HSMC; 1.5 nM at room temp; conditions: tags: human IgG2 Fc fusion (provided by A. Varki); label: 32P
Procedure: as §1, §4

B1: F14.21 (ssRNA)
RNA: GGGAGGACGAUGCGGUUGAGAUGUGUGAGUACAAGCUCAAAAUCCCGUUGGAGGCAGACGACUCGCCCGA
modifications: 2'-NH2 all C and U
B1 gave a Kd ([1]; hairpin) of 2600 nM and a Kd [2] of 2.3 nM.

B2: F14.20 (ssRNA)
RNA: GGGAGGACGAUGCGGUAACAACAAUCAAGGCGGGUUCACCGCCCCAGUAUGAGUGCAGACGACUCGCCCGA
modifications: 2'-NH2 all C and U
Work on B2 yielded a Kd ([1]; pseudoknot) of 70 nM and a Kd [3] of 0.058 nM.

B3: 122 (ssDNA)
DNA: CTACCTACGATCTGACTAGCGCAACGTGGCCCCGTTTAGCTCATTTGACCGTTCCATCCGGCTTACTCTCATGTAGTTCC
B3 showed a Kd [4] of 420 nM, a Kd [5] of 400 nM and a Kd [6] of 1.8 nM.

B4: 6.8 (ssRNA)
RNA: GGGAAAAGCGAAUCAUACACAAGAAAGGGAUGGGAUUGGGACGAGCGGCCAAGACUCGGCGGGAACGAAGGGUCCGCUCCGCCAGAGACCAACCGAGAA
modifications: 2'-NH2 all C and U
With B4 the Kd [7] was 4400 nM and the Kd [8] was 11 nM.

B5: F13.42 (ssRNA)
RNA: GGGAGGACGAUGCGGGAUGUAAAUGACAAAUGAACCUCGAAAGAUUGCACACUCCAGACGACUCGCCCGA
modifications: 2'-NH2 all C and U
In the case of B5, the Kd [1] is reported as 4400 nM and the Kd [9] is reported as 2 nM.

B6: 11.30 (ssRNA)
RNA: GGGAAAAGCGAAUCAUACACAAGACGGUUGCUGAACAGAACGUGAGUCUUGGUGAGUCGCACAGAUUGUCCUGCUCCGCCAGAGACCAACCGAGAA
modifications: 2'-NH2 all C and U
B6 showed a Kd [10] of 56 nM.

B7: F14.53 (ssRNA)
RNA: GGGAGGACGAUGCGGUCCCAGAGUCCCGUGAUGCGAAGAAUCCAUUAGUACCAGACAGACGACUCGCCCGA
modifications: 2'-NH2 all C and U
In the case of B7, the Kd [11] is reported as 5200 nM, the Kd [1] is reported as 355 nM and the Kd [12] is reported as 0.097 nM.

B8: F13.55 (ssRNA)
RNA: GGGAGGACGAUGCGGUGUCUCUCCUGACUUUUAUUCUUAGUUCGAGCUGUCCUGGCAGACGACUCGCCCGA
modifications: 2'-NH2 all C and U
B8 showed a Kd [11] of 5800 nM, a Kd [1] of 49 nM and a Kd [13] of 0.062 nM.
